Measurements published in publication doi:10.1101/755504 (bioRxiv, 2019).

Target: T1, His-D6PK (Arabidopsis thaliana, UniProt Q9FG74 1-498)
T1 sequence (looked up): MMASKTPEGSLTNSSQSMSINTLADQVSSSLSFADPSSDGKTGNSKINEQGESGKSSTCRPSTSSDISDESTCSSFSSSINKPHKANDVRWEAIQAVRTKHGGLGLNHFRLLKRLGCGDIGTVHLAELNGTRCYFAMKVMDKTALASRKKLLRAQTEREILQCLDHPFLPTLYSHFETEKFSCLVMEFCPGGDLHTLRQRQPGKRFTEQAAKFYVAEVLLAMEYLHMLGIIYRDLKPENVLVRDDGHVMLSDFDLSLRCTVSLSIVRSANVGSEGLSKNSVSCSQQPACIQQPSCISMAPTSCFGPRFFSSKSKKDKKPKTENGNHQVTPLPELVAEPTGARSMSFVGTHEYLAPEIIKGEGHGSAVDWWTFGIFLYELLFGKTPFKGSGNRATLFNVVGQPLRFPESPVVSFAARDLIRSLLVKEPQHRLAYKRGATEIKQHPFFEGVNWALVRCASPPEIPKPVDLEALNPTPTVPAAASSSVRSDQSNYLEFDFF
Experiment: pull-down

B1: GST-PDK1.1 (enzyme, Arabidopsis thaliana, UniProt Q9XF67 1-491, looked up)
chain: MLAMEKEFDSKLVLQGNSSNGANVSRSKSFSFKAPQENFTSHDFEFGKIYGVGSYSKVVRAKKKETGTVYALKIMDKKFITKENKTAYVKLERIVLDQLEHPGIIKLYFTFQDTSSLYMALESCEGGELFDQITRKGRLSEDEARFYTAEVVDALEYIHSMGLIHRDIKPENLLLTSDGHIKIADFGSVKPMQDSQITVLPNAASDDKACTFVGTAAYVPPEVLNSSPATFGNDLWALGCTLYQMLSGTSPFKDASEWLIFQRIIARDIKFPNHFSEAARDLIDRLLDTEPSRRPGAGSEGYVALKRHPFFNGVDWKNLRSQTPPKLAPDPASQTASPERDDTHGSPWNLTHIGDSLATQNEGHSAPPTSSESSGSITRLASIDSFDSRWQQFLEPGESVLMISAVKKLQKITSKKVQLILTNKPKLIYVDPSKLVVKGNIIWSDNSNDLNVVVTSPSHFKICTPKKVLSFEDAKQRASVWKKAIETLQNR
Does B1 bind?
Result: binds
